Where “and” joins values, the source holds several entries; their conditions need not be identical. Equal entries are not always repeated.
Columns and labels:
[1] = target: recombinant His-tagged Can f1 (dog (Canis familiaris)) (UniProt O18873); assay: serum ELISA, 1:64K, Alpaca 1 block
[2] = target: recombinant His-tagged Can f2 (dog (Canis familiaris)) (UniProt O18874); assay: serum ELISA, 1:64K, Alpaca 1 block
[3] = target: Can f2-sumo-His (dog (Canis familiaris)) (UniProt O18874); assay: serum ELISA, 1:64K, Alpaca 1 block
Can f2-sumo-His (dog (Canis familiaris)), sequence (O18874 19-180): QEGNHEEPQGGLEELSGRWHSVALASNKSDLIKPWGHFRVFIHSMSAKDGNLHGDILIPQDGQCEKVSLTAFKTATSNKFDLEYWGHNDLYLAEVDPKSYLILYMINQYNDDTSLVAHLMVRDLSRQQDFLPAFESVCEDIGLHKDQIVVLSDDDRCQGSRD

[4] = target: T1, recombinant His-tagged Der p2 (dust mite, UniProt P49278 18-146); assay: serum ELISA, 1:64K, Alpaca 1 block
T1 construct: also called Der p2-His; Der p2-HIS; not shown: His tag
T1 sequence (looked up): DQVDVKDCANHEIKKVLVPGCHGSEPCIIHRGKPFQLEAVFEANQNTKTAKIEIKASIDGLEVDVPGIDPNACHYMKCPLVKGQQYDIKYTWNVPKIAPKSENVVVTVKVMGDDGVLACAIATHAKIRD

[5] = target: recombinant His-tagged Can f1 (dog (Canis familiaris)) (UniProt O18873); assay: serum ELISA, 1:8K, Alpaca 2 block
[6] = target: recombinant His-tagged Can f2 (dog (Canis familiaris)) (UniProt O18874); assay: serum ELISA, 1:8K, Alpaca 2 block
[7] = target: Can f2-sumo-His (dog (Canis familiaris)) (UniProt O18874); assay: serum ELISA, 1:8K, Alpaca 2 block
[8] = target: T1, recombinant His-tagged Der p2; assay: serum ELISA, 1:8K, Alpaca 2 block
[9] = target: Can f2-sumo-His (dog (Canis familiaris)) (UniProt O18874); assay: serum ELISA, 1:16K, Alpaca 1 block
[10] = target: T1, recombinant His-tagged Der p2; assay: serum ELISA, 1:16K, Alpaca 1 block
[11] = target: recombinant His-tagged Can f1 (dog (Canis familiaris)) (UniProt O18873); assay: serum ELISA, 1:1K, Alpaca 1 block
[12] = target: recombinant His-tagged Can f2 (dog (Canis familiaris)) (UniProt O18874); assay: serum ELISA, 1:1K, Alpaca 1 block
[13] = target: Can f2-sumo-His (dog (Canis familiaris)) (UniProt O18874); assay: serum ELISA, 1:1K, Alpaca 1 block
[14] = target: T1, recombinant His-tagged Der p2; assay: serum ELISA, 1:1K, Alpaca 1 block
[15] = target: recombinant His-tagged Can f1 (dog (Canis familiaris)) (UniProt O18873); assay: serum ELISA, 1:4k, Alpaca 1 block
[16] = target: recombinant His-tagged Can f2 (dog (Canis familiaris)) (UniProt O18874); assay: serum ELISA, 1:4k, Alpaca 1 block
[17] = target: Can f2-sumo-His (dog (Canis familiaris)) (UniProt O18874); assay: serum ELISA, 1:4k, Alpaca 1 block
[18] = target: T1, recombinant His-tagged Der p2; assay: serum ELISA, 1:4k, Alpaca 1 block

recombinant His-tagged Can f2 (dog (Canis familiaris)), sequence (O18874 19-180 limits assumed): as the sequence (O18874 19-180) above
recombinant His-tagged Can f1 (dog (Canis familiaris)), sequence (O18873 19-174 limits assumed): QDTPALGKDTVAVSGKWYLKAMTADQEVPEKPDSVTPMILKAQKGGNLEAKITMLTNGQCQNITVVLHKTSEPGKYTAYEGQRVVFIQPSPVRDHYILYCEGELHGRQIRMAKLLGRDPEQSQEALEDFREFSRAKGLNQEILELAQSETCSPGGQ

OD at 450 nm [1]: 0.103 OD
OD at 450 nm [2]: 0.064 OD and 0.069 OD
OD at 450 nm [3]: 0.057 OD and 0.058 OD
OD at 450 nm [4]: 0.085 OD and 0.081 OD
OD at 450 nm [5]: 0.108 OD and 0.111 OD
OD at 450 nm [6]: 0.099 OD and 0.084 OD
OD at 450 nm [7]: 0.083 OD and 0.079 OD
OD at 450 nm [8]: 0.101 OD and 0.103 OD
OD at 450 nm [9]: 0.071 OD
OD at 450 nm [10]: 0.099 OD and 0.093 OD
OD at 450 nm [11]: 0.294 OD and 0.342 OD
OD at 450 nm [12]: 0.128 OD and 0.133 OD
OD at 450 nm [13]: 0.119 OD and 0.111 OD
OD at 450 nm [14]: 0.246 OD and 0.255 OD
OD at 450 nm [15]: 0.137 OD and 0.147 OD
OD at 450 nm [16]: 0.077 OD and 0.075 OD
OD at 450 nm [17]: 0.071 OD and 0.072 OD
OD at 450 nm [18]: 0.119 OD and 0.116 OD
Substance: Negative serum taken from naïve alpacas
